The text below walks through data of patent US20160368960A1.

As a reminder, the Ki is a measure of affinity in units of concentration, obtained from inhibition or displacement. Read a low Ki as higher affinity.

Starred links: 1 amine or outer side, 2 acyl side, 3 side chain; linkers in the order of their positions; H or OH if unused. Non-standard residues stand in square brackets, D forms with d. Groups on a side chain read outwards from the residue. *: point of attachment. C20 diacid = O=C(O)CCCCCCCCCCCCCCCCCCC(=O)*; C18 diacid = O=C(O)CCCCCCCCCCCCCCCCC(=O)*; γGlu = O=C(O)[C@H](CCC(=O)[*:2])N[*:1]; AEEA = NCCOCCOCC(=O)O; Aib = CC(C)(N)C(=O)O

The labels stand for the following.
B1: Compound 1 (peptide)
peptide: H-H[Aib]QGTFTSDYSKYLDEKKAK([AEEA-AEEA-γGlu-C18 diacid])EFVEWLLEGGPSSG-NH2
SMILES: CC(C)C[C@H](NC(=O)[C@H](CC(C)C)NC(=O)[C@H](Cc1c[nH]c2ccccc12)NC(=O)[C@H](CCC(=O)O)NC(=O)[C@@H](NC(=O)[C@H](Cc1ccccc1)NC(=O)[C@H](CCC(=O)O)NC(=O)[C@H](CCCCNC(=O)COCCOCCNC(=O)COCCOCCNC(=O)CC[C@H](NC(=O)CCCCCCCCCCCCCCCCC(=O)O)C(=O)O)NC(=O)[C@H](C)NC(=O)[C@H](CCCCN)NC(=O)[C@H](CCCCN)NC(=O)[C@H](CCC(=O)O)NC(=O)[C@H](CC(=O)O)NC(=O)[C@H](CC(C)C)NC(=O)[C@H](Cc1ccc(O)cc1)NC(=O)[C@H](CCCCN)NC(=O)[C@H](CO)NC(=O)[C@H](Cc1ccc(O)cc1)NC(=O)[C@H](CC(=O)O)NC(=O)[C@H](CO)NC(=O)[C@@H](NC(=O)[C@H](Cc1ccccc1)NC(=O)[C@@H](NC(=O)CNC(=O)[C@H](CCC(N)=O)NC(=O)C(C)(C)NC(=O)[C@@H](N)Cc1c[nH]cn1)[C@@H](C)O)[C@@H](C)O)C(C)C)C(=O)N[C@@H](CCC(=O)O)C(=O)NCC(=O)NCC(=O)N1CCC[C@H]1C(=O)N[C@@H](CO)C(=O)N[C@@H](CO)C(=O)NCC(N)=O
B2: Compound 2 (peptide)
peptide: H-H[Aib]QGTFTSDYSKYLDEKKAK([AEEA-AEEA-γGlu-C20 diacid])EFVEWLLEGGPSSG-NH2
B3: Compound 4 (peptide)
peptide: H-H[Aib]QGTFTSDYSKYLDEKKAK([AEEA-AEEA-γGlu-γGlu-C20 diacid])EFVEWLLSGGPSSG-NH2
SMILES: CC(C)C[C@H](NC(=O)[C@H](CC(C)C)NC(=O)[C@H](Cc1c[nH]c2ccccc12)NC(=O)[C@H](CCC(=O)O)NC(=O)[C@@H](NC(=O)[C@H](Cc1ccccc1)NC(=O)[C@H](CCC(=O)O)NC(=O)[C@H](CCCCNC(=O)COCCOCCNC(=O)COCCOCCNC(=O)CC[C@H](NC(=O)CC[C@H](NC(=O)CCCCCCCCCCCCCCCCCCC(=O)O)C(=O)O)C(=O)O)NC(=O)[C@H](C)NC(=O)[C@H](CCCCN)NC(=O)[C@H](CCCCN)NC(=O)[C@H](CCC(=O)O)NC(=O)[C@H](CC(=O)O)NC(=O)[C@H](CC(C)C)NC(=O)[C@H](Cc1ccc(O)cc1)NC(=O)[C@H](CCCCN)NC(=O)[C@H](CO)NC(=O)[C@H](Cc1ccc(O)cc1)NC(=O)[C@H](CC(=O)O)NC(=O)[C@H](CO)NC(=O)[C@@H](NC(=O)[C@H](Cc1ccccc1)NC(=O)[C@@H](NC(=O)CNC(=O)[C@H](CCC(N)=O)NC(=O)C(C)(C)NC(=O)[C@@H](N)Cc1c[nH]cn1)[C@@H](C)O)[C@@H](C)O)C(C)C)C(=O)N[C@@H](CO)C(=O)NCC(=O)NCC(=O)N1CCC[C@H]1C(=O)N[C@@H](CO)C(=O)N[C@@H](CO)C(=O)NCC(N)=O
B4: Compound 3 (peptide)
peptide: H-H[Aib]QGTFTSDYSKYLDEKKAK([AEEA-AEEA-γGlu-γGlu-C18 diacid])EFVEWLLSGGPSSG-NH2
SMILES: CC(C)C[C@H](NC(=O)[C@H](CC(C)C)NC(=O)[C@H](Cc1c[nH]c2ccccc12)NC(=O)[C@H](CCC(=O)O)NC(=O)[C@@H](NC(=O)[C@H](Cc1ccccc1)NC(=O)[C@H](CCC(=O)O)NC(=O)[C@H](CCCCNC(=O)COCCOCCNC(=O)COCCOCCNC(=O)CC[C@H](NC(=O)CC[C@H](NC(=O)CCCCCCCCCCCCCCCCC(=O)O)C(=O)O)C(=O)O)NC(=O)[C@H](C)NC(=O)[C@H](CCCCN)NC(=O)[C@H](CCCCN)NC(=O)[C@H](CCC(=O)O)NC(=O)[C@H](CC(=O)O)NC(=O)[C@H](CC(C)C)NC(=O)[C@H](Cc1ccc(O)cc1)NC(=O)[C@H](CCCCN)NC(=O)[C@H](CO)NC(=O)[C@H](Cc1ccc(O)cc1)NC(=O)[C@H](CC(=O)O)NC(=O)[C@H](CO)NC(=O)[C@@H](NC(=O)[C@H](Cc1ccccc1)NC(=O)[C@@H](NC(=O)CNC(=O)[C@H](CCC(N)=O)NC(=O)C(C)(C)NC(=O)[C@@H](N)Cc1c[nH]cn1)[C@@H](C)O)[C@@H](C)O)C(C)C)C(=O)N[C@@H](CO)C(=O)NCC(=O)NCC(=O)N1CCC[C@H]1C(=O)N[C@@H](CO)C(=O)N[C@@H](CO)C(=O)NCC(N)=O

In the first experiment the target is human Gcg receptor (human), P47871. Nature of the experiment: radioligand competition SPA, displacement of I-125 Gcg, hGcg-R 293HEK membranes. (In general: Displacement assays read how much labelled ligand stays bound in the presence of the test substance.)
human Gcg receptor (human), P47871, sequence (P47871 26-477): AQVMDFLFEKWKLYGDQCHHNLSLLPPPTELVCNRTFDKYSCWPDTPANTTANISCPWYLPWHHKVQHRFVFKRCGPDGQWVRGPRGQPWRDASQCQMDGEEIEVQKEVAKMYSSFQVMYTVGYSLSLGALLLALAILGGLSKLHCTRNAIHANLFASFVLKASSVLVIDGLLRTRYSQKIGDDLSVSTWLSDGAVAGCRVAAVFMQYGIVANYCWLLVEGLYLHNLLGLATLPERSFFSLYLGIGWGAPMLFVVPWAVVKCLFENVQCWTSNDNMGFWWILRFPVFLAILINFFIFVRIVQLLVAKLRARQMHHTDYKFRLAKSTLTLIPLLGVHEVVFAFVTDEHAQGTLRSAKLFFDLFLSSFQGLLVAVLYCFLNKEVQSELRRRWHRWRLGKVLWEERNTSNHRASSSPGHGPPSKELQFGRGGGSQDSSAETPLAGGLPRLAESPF
Regarding B1, the Ki turned out to be 0.0146 µM.

B2 showed a Ki of 0.0177 µM.

B3 had a Ki of 0.0274 µM.

The molecule B4 yielded a Ki of 0.0373 µM.

In another experiment the target is T1, rat GLP-1-R (rat), P32301.
T1 chain: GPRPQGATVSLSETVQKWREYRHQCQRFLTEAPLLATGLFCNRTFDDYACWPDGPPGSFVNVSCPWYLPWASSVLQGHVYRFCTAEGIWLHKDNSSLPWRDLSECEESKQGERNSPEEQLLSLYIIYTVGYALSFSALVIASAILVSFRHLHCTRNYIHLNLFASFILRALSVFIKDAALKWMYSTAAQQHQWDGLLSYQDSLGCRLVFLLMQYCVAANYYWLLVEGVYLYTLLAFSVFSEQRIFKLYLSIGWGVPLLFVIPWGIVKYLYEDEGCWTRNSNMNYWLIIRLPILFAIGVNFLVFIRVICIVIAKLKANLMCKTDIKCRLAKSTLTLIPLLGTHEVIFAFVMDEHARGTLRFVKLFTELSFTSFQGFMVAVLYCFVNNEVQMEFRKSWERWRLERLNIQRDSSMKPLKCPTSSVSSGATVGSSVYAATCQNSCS
Nature of the experiment: cell-based or functional assay.
In turn, B1 yielded an EC50 (nM), cAMP production in INS1 832-3 cells of 26.1 nM and an Emax (%), cAMP production in INS1 832-3 cells of 112%.

The molecule B2 displayed an EC50 (nM), cAMP production in INS1 832-3 cells of 62 nM and an Emax (%), cAMP production in INS1 832-3 cells of 104%.

The next experiment deals with T2, human GLP-1 receptor (human), P43220.
T2 chain: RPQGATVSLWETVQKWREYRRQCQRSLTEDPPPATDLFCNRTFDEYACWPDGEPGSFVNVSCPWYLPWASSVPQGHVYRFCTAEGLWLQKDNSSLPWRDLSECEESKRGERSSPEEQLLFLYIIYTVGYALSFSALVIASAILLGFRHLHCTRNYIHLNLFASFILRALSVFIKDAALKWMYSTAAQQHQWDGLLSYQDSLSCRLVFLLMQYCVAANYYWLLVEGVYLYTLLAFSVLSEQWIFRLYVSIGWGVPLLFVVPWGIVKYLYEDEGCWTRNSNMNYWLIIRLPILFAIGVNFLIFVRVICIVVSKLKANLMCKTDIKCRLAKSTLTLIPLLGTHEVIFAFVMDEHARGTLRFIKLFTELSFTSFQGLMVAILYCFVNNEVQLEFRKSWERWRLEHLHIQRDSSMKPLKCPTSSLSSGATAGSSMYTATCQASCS
Briefly: cell-based or functional assay.
As for B1, the EC50, cAMP production worked out at 0.0239 µM and the Emax, cAMP production worked out at 104%.

Molecule B2 returned an EC50, cAMP production of 0.0831 µM and an Emax, cAMP production of 107%.

For B3, the EC50, cAMP production was determined as 0.106 µM and the Emax, cAMP production was found to be 85.2%.

For the molecule B4, the EC50, cAMP production turned out to be 0.0343 µM and the Emax, cAMP production was 105%.

The target of another experiment is human Gcg receptor (human), P47871. Briefly: cell-based or functional assay.
In the case of B1, the EC50 (nM), cAMP production in primary human hepatocytes came out at 99.9 nM and the EC50, cAMP production worked out at 0.00721 µM.

In turn, B2 returned an EC50 (nM), cAMP production in primary human hepatocytes of 159 nM and an EC50, cAMP production of 0.0265 µM.

In turn, B3 displayed an EC50, cAMP production of 0.0688 µM and an Emax, cAMP production of 116%.

In turn, B4 returned an EC50, cAMP production of 0.0153 µM and an Emax, cAMP production of 104%.

Another experiment deals with T2, human GLP-1 receptor (human), P43220. Nature of the experiment: radioligand competition SPA, displacement of I-125 GLP-1, hGLP-1-R 293HEK membranes.
With B1, the Ki turned out to be 0.023 µM.

On to B2, for which the Ki stood at 0.0286 µM.

Turning to B3, the Ki was 0.0202 µM.

The molecule B4 came in with a Ki of 0.00868 µM.
